The target of assay [1] is T1, MBP-tagged D3 (2-720) co-expressed with untagged ASK1 (rice (Oryza sativa) | Arabidopsis, UniProt Q5VMP0 2-720; Q39255 1-160).
T1 sequence (looked up) 1: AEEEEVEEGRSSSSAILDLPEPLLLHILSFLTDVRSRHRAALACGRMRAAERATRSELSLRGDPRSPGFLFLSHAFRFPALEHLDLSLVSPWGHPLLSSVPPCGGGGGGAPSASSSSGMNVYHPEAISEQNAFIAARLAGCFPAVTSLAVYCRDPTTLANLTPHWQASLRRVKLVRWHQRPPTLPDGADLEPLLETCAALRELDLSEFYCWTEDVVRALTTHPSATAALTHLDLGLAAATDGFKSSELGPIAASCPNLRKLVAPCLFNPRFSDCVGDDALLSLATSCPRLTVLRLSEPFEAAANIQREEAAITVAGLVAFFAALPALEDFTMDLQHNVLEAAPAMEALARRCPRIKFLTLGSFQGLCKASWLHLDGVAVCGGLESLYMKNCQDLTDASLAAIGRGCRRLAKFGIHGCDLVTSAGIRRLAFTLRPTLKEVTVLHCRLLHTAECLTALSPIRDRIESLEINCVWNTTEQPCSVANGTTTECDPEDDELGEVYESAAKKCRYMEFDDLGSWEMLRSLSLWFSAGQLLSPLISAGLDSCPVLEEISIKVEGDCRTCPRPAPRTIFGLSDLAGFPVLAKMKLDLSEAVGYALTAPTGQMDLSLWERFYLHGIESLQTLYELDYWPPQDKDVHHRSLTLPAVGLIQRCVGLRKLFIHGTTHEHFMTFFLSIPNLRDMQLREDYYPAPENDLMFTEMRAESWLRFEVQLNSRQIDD
T1 sequence (looked up) 2: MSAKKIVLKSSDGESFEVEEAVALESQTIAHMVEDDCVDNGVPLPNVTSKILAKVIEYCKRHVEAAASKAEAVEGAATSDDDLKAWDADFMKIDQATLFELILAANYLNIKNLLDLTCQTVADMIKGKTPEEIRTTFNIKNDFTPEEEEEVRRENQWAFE
Description: pull-down.

Assay [2] deals with T2, MBP-His-D53-D2 (718-1131) (rice (Oryza sativa), UniProt Q2RBP2 718-1131).
T2 sequence (looked up): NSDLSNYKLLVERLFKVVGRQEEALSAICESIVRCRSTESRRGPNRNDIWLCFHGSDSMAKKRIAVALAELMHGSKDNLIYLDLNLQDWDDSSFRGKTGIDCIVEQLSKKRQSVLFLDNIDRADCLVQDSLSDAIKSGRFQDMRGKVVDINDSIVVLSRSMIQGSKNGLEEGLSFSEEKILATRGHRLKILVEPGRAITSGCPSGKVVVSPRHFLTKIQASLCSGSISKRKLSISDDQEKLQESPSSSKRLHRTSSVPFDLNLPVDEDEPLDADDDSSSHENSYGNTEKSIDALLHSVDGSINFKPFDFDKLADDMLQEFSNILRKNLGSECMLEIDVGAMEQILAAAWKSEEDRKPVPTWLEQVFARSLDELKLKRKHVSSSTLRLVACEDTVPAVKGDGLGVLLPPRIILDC
In words: pull-down.

B1: Glutathione-S-transferase (GST)-tagged D14L (receptor, rice (Oryza sativa), UniProt Q10J20 1-271, looked up)
chain: MGIVEEAHNLRVVGEGKRGVIVLAHGFGTDQSVWKHLVPHLVADYRVVLFDTMGAGPTNPDYFDFSRYATLEGYALDLLAILQELRVASCIYVGHSVSAVIGAIASISRPDLFSKLVLLSASPRYLNDVDYYGGFEQEDLDELFEAMGSNYKAWCSGFAPLCVGGDMESVAVQEFSRTLFNIRPDIALSVAQTIFQSDVRSLLPLVTVPCHIVQSTKDLAVPVVVSEYLHKHLGGDSIVEVMPSEGHLPQLSSPDIVIPVLLRHIQHDIAV
Regarding B1, in assay [1], the binding result is on record as “binds”.

B2: GST-D14 (50-318) (receptor, rice (Oryza sativa), UniProt Q10QA5 50-318, looked up)
chain: APSGAKLLQILNVRVVGSGERVVVLSHGFGTDQSAWSRVLPYLTRDHRVVLYDLVCAGSVNPDHFDFRRYDNLDAYVDDLLAILDALRIPRCAFVGHSVSAMIGILASIRRPDLFAKLVLIGASPRFLNDSDYHGGFELEEIQQVFDAMGANYSAWATGYAPLAVGADVPAAVQEFSRTLFNMRPDISLHVCQTVFKTDLRGVLGMVRAPCVVVQTTRDVSVPASVAAYLKAHLGGRTTVEFLQTEGHLPHLSAPSLLAQVLRRALARY
Regarding B2, the binding result in assay [2] is recorded as “binds”.

Values taken from article doi:10.1101/2025.09.29.679124 (bioRxiv, 2025).
